A short description of this data set: yeast display, Sf9 membrane polyspecificity reagent, FACS + sequencing; frameworks hold sequencing errors. In short, it runs like this: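 Polyreactivity labels are assigned by the sorting gate from which each nanobody was recovered. The gates were low and high (top ~1%), set on anti-HA fluorescence for expression and streptavidin fluorescence for reagent binding. Before sorting, galactose-induced (36–48 hours) yeast display cells were stained for 1 hour at 4 °C with 10% biotinylated, detergent-solubilized Sf9 membrane reagent.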
Turning to “QVQLVESGGGLVQAGGSLRLSCAASGRIFSRYALGWYRQAPGQERELDAAINKSGGSTYYADSVKGRFTISRDNAKNTVYFQMKSMKAEDTAVYYCTAVYYWYKGDYWGQGTQVTVSS”, the “polyreactivity (PSR sort gate)” value is reported as “high polyreactivity”.

As for “QVQLVESGGGLVQAGGSLRLSCAASGFIFFANAMGWYRQAPGKESELVADITWSGGTTYYADSVKGRFTISRDNAKNTVYLQMNSLKPEDTAVYYCAARGWASTWYYYWGQGTQVTVSS”, the “polyreactivity (PSR sort gate)” value is on record as “high polyreactivity”. With “QVQLVESGGGLVQAGGSLRLSCAASGSIFRLYAMGWYRQAPGKERELVAAITGRGTSTYYADSVKGRFTISRDNAKNTVYLQMNSLKPEDTAVYYCAARLFKNSGTTYDRYGYWGQGTQVTVSS”, the “polyreactivity (PSR sort gate)” value is reported as “high polyreactivity”. Consider “QVQLQESGGGLVQAGGSLRLSCAAIGSISILQSMGWYRQAPGKERELVAGINWGATTYYADSVKGRLTTSRDYAKNTVYLQMNSLKPEDTAVYYCAVPTYYTYPLLYWGQGTQVTVSS”, for which the “polyreactivity (PSR sort gate)” value is listed as “low polyreactivity”. For the sequence “QVQLVESGGGLVQAGCSLRLSCAASGFTFQHNAMGWYRQAPGKERELVAAISRGGSTNYADSVKGRFTISRDNAKNTVYLQMNSLKPEDTAVYYCAAYDWRVLWGYDYWGQGTQVTVSS”, the “polyreactivity (PSR sort gate)” value was “low polyreactivity”.

“QVQLVESGGGLVQAGGSLRLSCAASGIIFRQYAMGWSRQEPGKERELVAGITGTGSTYYADSVKGRFTISRDNAKNTVYLQLNSLKPEETAVYYCATRSFRVFYPYPYDYWGQGTQVTVSS”: the “polyreactivity (PSR sort gate)” value was “high polyreactivity”. Consider “QGQLVESGGGLVQAGGSLRLSCAASGFTFSYNVMGWYRQAPGKERELVPAINWSGGRTYYADSVKGRFTISRDNAKNTVYLQMNSLKPEDTAVYYCAARVYRGTARLIYDYWGQGTQVTVSS”, for which the “polyreactivity (PSR sort gate)” value is “high polyreactivity”. On to “QEQLQESVVCQVQAGRSLHLSCAASGNIIRYSYMGWYRQAPGNERELVAAITYGTSTNYADSVKGRFTISRDHAKNTVYLQMTSLKPEDTAVYYCAVDVNYGDPLDNWCQGTQVTVSS”, for which the “polyreactivity (PSR sort gate)” value is recorded as “high polyreactivity”. Consider “QVQLVESGGGLVQAGGSLRLICAASGFTFYYYAMGWYRQAPGKEWELVAAISRNGVSTYYADSVKGRFTISRDNAKNTVYLQMNSLKPEDTAVYYCASGYGSLHVNYLGQGTQVTVSS”, for which the “polyreactivity (PSR sort gate)” value is recorded as “low polyreactivity”. In the case of “QVQLVESGGGLVQAGGSLRLSCAASGRILGQYVMGWYRQAPGKERELVASIRSGGVSTYYADSVKGRFTISRDNAKNTVYLQMNSLKPEDTAVYYCATGSPGPRRYKFDYWGQGTQVTVSS”, the “polyreactivity (PSR sort gate)” value is listed as “low polyreactivity”. The entry for “QVQLVESGGGLVQAGVSLRLSCAASGRTSAYSAMGWYRQAPGKERQLVAGITRGGRTNYADSVKGRFTISRDNAKNTVYLQMHSLKPEDTAVYYCAAKYGYYWNSRTSGYWGQGTQVTVSS” is “high polyreactivity”; for “QVQLVESGGGLVQAGGSLRLSCAASGRTFKRYAMGWYRQAPGKERELVAAIRQRGGSTYYADSVMGRFTISRDNAKNTVYLQMNSLKPEDTAVYYCAAVIPRPYSVGFDYWGQGTQVTVSS” it is “high polyreactivity”.

In the case of “QVQLVESGGGLVQAGGSLRLSCAASGSIFSYYAMGWYRQAPGKERELVAAISRSGVSTYYADSVKGRFTISRDNAKNTVYLQMNSLKPEDTAVYYCNAVFTWPRRKYGYDYWGQGTQVTVSS”, the “polyreactivity (PSR sort gate)” value was “high polyreactivity”. With “QVQLVESGGGLVQAGGSLRLSCAASGSILSYYAMGWYRQAPGKEREFVAAISSGGGTYYADSVKGRFTISRDNAKNTVYLQMNSLKPEDTAVYYCNAEIWTEGGYWGQGTQVTVSS”, the “polyreactivity (PSR sort gate)” value is on record as “low polyreactivity”. With “QVQLVESGGGLVQAGGSLRLSCAASGRIIRWYAMGWYRQAPGKERELVAAISGSGGSTYYADSVKGRFTISRDNAKNTVYLQMNSLKPEDTAVYYCAAAYYRDSDRRYNYWGQGTQVTVSS”, the “polyreactivity (PSR sort gate)” value is given as “high polyreactivity”.

Consider “QVKLVDSGGGLVQAGGSLRLTCAASGRTLGRNGMGWYRQDPGKERELVAAISLSGGRSYADSVKGRFTISRDNAKNSVYLQMNSLKPEDTAVYYCAKVGYSRRYAYNVYYWGQGTQLTVSS”, for which the “polyreactivity (PSR sort gate)” value is “low polyreactivity”. The entry for “QVQLVESGGGLVQAGGSLRLSCAASGSILVEYAMGWYRQAPGKERELVAGISGSTGTTYYADSVKGRFTISRDNAKNTVYLQMNSLKPEDTAVYYCAKLFPVARPQYGYWGQGTQVTVSS” is “low polyreactivity”; for “QVQLVESGGGLVQAGGSLRISCAASGSTFSGNSMGRYRPAPGKERELFAAINSVRTYYADSVKGRFTISRDNAKNTVYLQMNSLIPEDTAVFSCAARQGYSSRFPAKGYYWGQGTQVTVSS” it is “high polyreactivity”; for “QVQLVESGGGVVQAGGSHRLSCAASGRTFRGNAMGWYRQAPGTERELVATITCSGGSTYYADSVKGRFTISRDNAKNTGYLQMNSLKPEDTAGYAGAVRGLHLVWVPFGYDYWRQGTQVTVSS” it is “low polyreactivity”.

As for “QVQLVESGGGLVQAGGSLRLSCAASGSTYRYYAMGWYRQAHGKERELVAAINSSCGSTYYADSVKGRFTISRDNAKNTVYLQMNSLKPEDTAVYYCATVYAYTGWLTNPREYSRYDYWGQGTQVTVSS”, the “polyreactivity (PSR sort gate)” value was “low polyreactivity”. The entry for “QVQLVESGGGLVQAGGSLRLSCAASGSTFRQNAMGWYRQAPGKERELVAAITYRVASTYYADSVKGRFTISRDNAKNTVYLQMNSLKPEDTAVYYCAARFGSGFNYWGQGTQVTVSS” is “high polyreactivity”; for “QVQLVESGGGLVQAGGSLRLSCAASGITINGYVMGWYRQAPGKERELVAAITSGARTYYADSVKGRFTISRDNAKNTVYLQMNSLKPEDTAVYYCAASIWLYRYYYWGQGTQVTVSS” it is “high polyreactivity”. The entry for “QVQLVESGGGLVQAGGSLRLSCAASGSIFTNAMGWYRQAPGKERELVAAISSTGGSTYYADSVKGRFTISRDNAKNTVYLQMYSLKPEDTAVYYCAADHYGGRDYWGQGTQLTVSS” is “low polyreactivity”; for “QVQLVESGGGLLQAGGSLRLSCAASGRIFVHYVMGWYRQAPGKERELVAAINVSGGGTYYADSVKGRFTISRDNAKNTVYLQMNCLKPEDTAVFYCAAGTTQDWPFSSRSYFGHDSWGQGTQVTVSS” it is “low polyreactivity”.

“QVQLVESGGGLVQAGGSLRLSCAASGSLVGYYPMGWYRQAPGKERELVAAISRSGGSTYYADSVKGRFSISRDNAKNTVYLQMNSLKPEDTAVYYCATSRVRSAGRDYWGQGTQVTVSS”: the “polyreactivity (PSR sort gate)” value is recorded as “high polyreactivity”. “QVQLVESGGGLVQAGGSHRLSCAASGRTFRPYAMGWYRQAPGKERELVAAITGGTRKYYADSVKGRFTISRDNAKNSVYLQMNSLKPEVTAVYSCAKGDFFSKHDYRGQGTQVTVSS”: the “polyreactivity (PSR sort gate)” value is given as “low polyreactivity”. The entry for “QVQLLESGVCLVQAGGSLRLSCAASGFTFGVYAMGWYRQAPGKERELVAAISTTVGSTYYADSVKGRFTISRDNAKKTVYLQMNSLKPEDTAVYYCAAEYTGYINYYIYEYWGQGTQVTVSS” is “low polyreactivity”; for “QVQLVESGGGLVQAGGSLRLSCAASGSTFPYYAMGWSRQAPGKERELVAAISGSGGTTYYADSVKGRFTISRDNAKNTVYLQMNSLKPEYTAVYYCAVDIGVGYGYYYWGQGTQVTVSS” it is “low polyreactivity”.

For “QVQIVESVGGLVQAGGSLRLSCAASGSTFWFTDMGWYRQAPGKERELVAVITWTGGSTSYADSVKGRFTISRDNAKNTDYLQMKCLNAEDTADYYCDTPVKFGGVPYRYGYWGQGTEVTVSS”, the “polyreactivity (PSR sort gate)” value is “low polyreactivity”. Take “QVQLVESGGGLVQAGGRLRLSCAGSGRIFISNTMGWYRQGPGKERELVASISLRGGSTYYADSVKGRFTISRDNAKNSVYLQMNSLKPEDTAVYYCAAATLRQYDDEYWGQCTQVTVSS”: the “polyreactivity (PSR sort gate)” value is “high polyreactivity”. As for “QVQLVESGGGLVQAGGSLRLSCAASGFIFRWYAMGWYRQAPGKERDLVATISSGGSTYYADSVKGRFTISRDNAMNTFYLQMISLKPEDTAVYYCAARFHYRGALYYYWGQGTQVTVSS”, the “polyreactivity (PSR sort gate)” value is “high polyreactivity”.

In the case of “QVQLVESGGGLVQAGGSLRLSCAASGSIFAKNAMGWYRQAPGKERELVAGIDFSGGSTYYADSVKGRFTISRDNAKNTVYLQMNSLKPEDTAVDYCAADWAYKYELDYWGQGTQVTVSS”, the “polyreactivity (PSR sort gate)” value was “low polyreactivity”. For the sequence “QVQLVESGGGLVQAGGSLRLSCAASGLTIWRHAMGWYRQAPGKEREFVATISQNGGRTYYADSVKGRFTISRDNAKNTVYLQMNSLKPEDTAVYYCAADDWRWRYDYWGQGTQVTVSS”, the “polyreactivity (PSR sort gate)” value is “high polyreactivity”. As to “QVQLVESGGGLVQAGGGLRLSFPASGRTFTVNAMGWSRQSPGKERELVATITYGGGSRYYADSVKGRFTISRDNAKNSVYLQMNSLKPEDTAVYYCAARSDNYHVYYFKRWGKYYSWGQGTQVTVSS”, the “polyreactivity (PSR sort gate)” value is reported as “low polyreactivity”. Turning to “QFQLVESGGGLVQAGGSLRLSCAASGGTFYSNAMGCYRQAPGKERDLVATITGGGRTYYADSVKGRFTISRDNAKNTVYLQMNSLKPEDNAVYYCAVRGYHQYKYGYWGQGTQVNVSS”, the “polyreactivity (PSR sort gate)” value is on record as “high polyreactivity”. The entry for “QVQLEESGGGLVQAGGSLRLSCAASGSILVIYTMGWYRQAPGKERELVAGINYSGGRTYYADSVKGRFTISRDNAKNTVYLQMNSLKPEDTAVYYCSADYYFLDWYDYWGQGTQVTVSS” is “low polyreactivity”. The entry for “QVQLVETGRGLVQAGGSLRLSSAASGSTFGPNAMGWYRQAHGKVRELVAAITWSGSTTYYADSVKGRFTISRDIAKNTVYLQMNSLKPEDTPVYYCAALRGYRSNWRYGYWGQGTQVTVSS” is “low polyreactivity”; for “QVQLVESGGGLVQAGGSLRLSCAASGLIFFINDMGWYRQAPGKERELVAAITSGGSTYYADSVKGRFTISRDNAKNTVYLQMNSLKPEDTAVYYCAADSYDWYDYWGQGTQVTVSS” it is “high polyreactivity”; for “QVQLVESGGGLVQAGGSLRLSCAASGSIFVPYAMGWYRQAPGKERELVAVIRYRGGTTYYADSVKGRFTLSRDNAKNTVYLQMNSLKPEDTAVYYCEASARRYPPAAGVPYRYDYWGQGTQVTVSS” it is “high polyreactivity”. In the case of “QVQLVESGGGLVQAGGSLRLSCAASGFTFAYAMGWYRQAPGKERELVAAISFSGGSTYYADSVKGRFTISRDNAKNTVYLQMNSLKPEDTAVYYCNKRGGKRSTMDYWGHGTQVTVSS”, the “polyreactivity (PSR sort gate)” value is recorded as “low polyreactivity”. The entry for “QVQLVESGGGLVQAGGSLRLSCAASGRTFKPYALGWYRQAPGKERELDAAISTGGSTNYADSEKGRFTISRDNAKNSVYLQMNSLKPEDTAVYYCAADYFLYSYFLGLMDYWGQGTLVTVSS” is “low polyreactivity”.

The record behind these values is the nanobody polyreactivity screen of Harvey et al. (2022).
